B1: FBXO3 (parent)
chain: HDPLWRRHCKKYWLISEEEKTQKN
B2: USP39 (parent)
chain: FQGSMRIFTKKLPHPDLPAEEKEQ
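Note: lentivirally expressed fusions sorted by FACS into six bins by GFP to DsRed ratio, PSI derived from sequencing read proportions per bin multiplied by bin number.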

Variants of B1 are the subject of the first data set. Nature of the data set: protein stability index of a GFP-peptide fusion (GPS, HEK-293T) (PSI 1-6); higher = more stable. The following applies: c terminus: a fixed tail appended.
Take HGPLWRRHCKKYWLISEEEKTQKN: the protein stability index was 1.62.
On to HFPLWRRHCKKYWLISEEEKTQKN, for which the protein stability index was 2.33.
The same measure, in the same setting: with HAPLWRRHCKKYWLISEEEKTQKN the figure was 2.58; with HMPLWRRHCKKYWLISEEEKTQKN, 2.63; with HKPLWRRHCKKYWLISEEEKTQKN, 2.58.
The same measure, in the same setting: with HIPLWRRHCKKYWLISEEEKTQKN the figure was 2.25; with HPPLWRRHCKKYWLISEEEKTQKN, 3.13.
The same measure, in the same setting: then HYPLWRRHCKKYWLISEEEKTQKN, with 2.56; and HTPLWRRHCKKYWLISEEEKTQKN, with 1.87; and HCPLWRRHCKKYWLISEEEKTQKN, with 2.26.
On to HVPLWRRHCKKYWLISEEEKTQKN, for which the protein stability index came to 1.97.
Regarding HEPLWRRHCKKYWLISEEEKTQKN, the protein stability index is 2.62.
Turning to HQPLWRRHCKKYWLISEEEKTQKN, the protein stability index amounted to 2.91.
Same read-out and setting: then HSPLWRRHCKKYWLISEEEKTQKN, with 1.81; and HNPLWRRHCKKYWLISEEEKTQKN, with 2.78; and HWPLWRRHCKKYWLISEEEKTQKN, with 1.97.
Turning to HRPLWRRHCKKYWLISEEEKTQKN, the protein stability index worked out at 2.86.
Consider HLPLWRRHCKKYWLISEEEKTQKN, for which the protein stability index is 2.24.
Still for that read-out and setting: with HHPLWRRHCKKYWLISEEEKTQKN the figure was 2.18; with HDPAWRRHCKKYWLISEEEKTQKN, 2.92.
Still for that read-out and setting: with HDPCWRRHCKKYWLISEEEKTQKN the figure was 3.51; with HDPDWRRHCKKYWLISEEEKTQKN, 4.6.
Still for that read-out and setting: with ADPLWRRHCKKYWLISEEEKTQKN the figure was 3.78.
On to MDPLWRRHCKKYWLISEEEKTQKN, for which the protein stability index was 3.32.
Still for that read-out and setting: then PDPLWRRHCKKYWLISEEEKTQKN, with 3.74.
Same read-out and setting: with IDPLWRRHCKKYWLISEEEKTQKN the figure was 2.06; with KDPLWRRHCKKYWLISEEEKTQKN, 3.21; with QDPLWRRHCKKYWLISEEEKTQKN, 3.13.
Turning to VDPLWRRHCKKYWLISEEEKTQKN, the protein stability index stood at 3.38.
Take GDPLWRRHCKKYWLISEEEKTQKN: the protein stability index was determined as 3.29.
For FDPLWRRHCKKYWLISEEEKTQKN, the protein stability index amounted to 2.34.
Still for that read-out and setting: with RDPLWRRHCKKYWLISEEEKTQKN the figure was 2.8; with LDPLWRRHCKKYWLISEEEKTQKN, 3.85; with TDPLWRRHCKKYWLISEEEKTQKN, 3.66.
For the variant SDPLWRRHCKKYWLISEEEKTQKN, the protein stability index came out at 3.62.
On to EDPLWRRHCKKYWLISEEEKTQKN, for which the protein stability index was determined as 3.84.
On to YDPLWRRHCKKYWLISEEEKTQKN, for which the protein stability index came out at 2.12.
Regarding CDPLWRRHCKKYWLISEEEKTQKN, the protein stability index came out at 3.53.
For the variant DDPLWRRHCKKYWLISEEEKTQKN, the protein stability index was 4.12.
The same measure, in the same setting: with NDPLWRRHCKKYWLISEEEKTQKN the figure was 3.38; with WDPLWRRHCKKYWLISEEEKTQKN, 2.15.
In the case of HDELWRRHCKKYWLISEEEKTQKN, the protein stability index was 3.45.
Turning to HDLLWRRHCKKYWLISEEEKTQKN, the protein stability index came out at 3.12.
Still for that read-out and setting: then HDTLWRRHCKKYWLISEEEKTQKN, with 3.84; and HDQLWRRHCKKYWLISEEEKTQKN, with 3.5.
Same read-out and setting: then HDMLWRRHCKKYWLISEEEKTQKN, with 3.33.
On the same count and under the same terms, then HDILWRRHCKKYWLISEEEKTQKN, with 3.08; and HDRLWRRHCKKYWLISEEEKTQKN, with 2.91; and HDFLWRRHCKKYWLISEEEKTQKN, with 2.41.
HDCLWRRHCKKYWLISEEEKTQKN: the protein stability index was 3.02.
The same measure, in the same setting: with HDALWRRHCKKYWLISEEEKTQKN the figure was 3.58; with HDDLWRRHCKKYWLISEEEKTQKN, 3.33.
Regarding HDHLWRRHCKKYWLISEEEKTQKN, the protein stability index stood at 2.97.
For HDSLWRRHCKKYWLISEEEKTQKN, the protein stability index was found to be 3.38.
On the same count and under the same terms, then HDGLWRRHCKKYWLISEEEKTQKN, with 3.1; and HDVLWRRHCKKYWLISEEEKTQKN, with 3.84.
For HDKLWRRHCKKYWLISEEEKTQKN, the protein stability index amounted to 3.03.
Same read-out and setting: then HDYLWRRHCKKYWLISEEEKTQKN, with 2.75; and HDWLWRRHCKKYWLISEEEKTQKN, with 2.44; and HDNLWRRHCKKYWLISEEEKTQKN, with 3.49.

Variants of B2 are the subject of another data set. Described as above. The note with it: c terminus: a fixed tail appended.
As to FQGSMRIFTKKLPHPDLPAEEKEL, the protein stability index stood at 1.91.
Still for that read-out and setting: then FQGSMRIFTKKLPHPDLPAEEKEN, with 2.12; and FQGSMRIFTKKLPHPDLPAEEKET, with 2.1.
On the same count and under the same terms, then FQGSMRIFTKKLPHPDLPAEEKEH, with 2.05; and FQGSMRIFTKKLPHPDLPAEEKES, with 2.14.
On the same count and under the same terms, then FQGSMRIFTKKLPHPDLPAEEKER, with 2.15; and FQGSMRIFTKKLPHPDLPAEEKEM, with 2.05; and FQGSMRIFTKKLPHPDLPAEEKEP, with 1.83.
Take FQGSMRIFTKKLPHPDLPAEEKEV: the protein stability index came to 1.52.
On the same count and under the same terms, with FQGSMRIFTKKLPHPDLPAEEKEI the figure was 2.13; with FQGSMRIFTKKLPHPDLPAEEKEF, 1.87.
As for FQGSMRIFTKKLPHPDLPAEEKEE, the protein stability index came out at 1.81.
On the same count and under the same terms, then FQGSMRIFTKKLPHPDLPAEEKEY, with 1.62.
Same read-out and setting: then FQGSMRIFTKKLPHPDLPAEEKED, with 2.32; and FQGSMRIFTKKLPHPDLPAEEKEG, with 2.42.
Still for that read-out and setting: then FQGSMRIFTKKLPHPDLPAEEKEW, with 1.33; and FQGSMRIFTKKLPHPDLPAEEKEA, with 2.05.
As for FQGSMRIFTKKLPHPDLPAEEKEK, the protein stability index amounted to 2.37.
Regarding FQGSMRIFTKKLPHPDLPAEEKEC, the protein stability index was found to be 2.15.
With FQGSMRIFTKKLPHPDLPFEEKEQ, the protein stability index turned out to be 1.81.
On to FQGSMRIFTKKLPHPDLPHEEKEQ, for which the protein stability index was found to be 2.25.
Turning to FQGSMRIFTKKLPHPDLPYEEKEQ, the protein stability index came to 1.34.
Turning to FQGSMRIFTKKLPHPDLPPEEKEQ, the protein stability index was found to be 2.5.
The same measure, in the same setting: with FQGSMRIFTKKLPHPDLPVEEKEQ the figure was 2.25; with FQGSMRIFTKKLPHPDLPMEEKEQ, 1.63; with FQGSMRIFTKKLPHPDLPTEEKEQ, 1.68.
For the variant FQGSMRIFTKKLPHPDLPKEEKEQ, the protein stability index is 1.73.
On the same count and under the same terms, with FQGSMRIFTKKLPHPDLPLEEKEQ the figure was 2.25.
In the case of FQGSMRIFTKKLPHPDLPCEEKEQ, the protein stability index amounted to 1.96.
The same measure, in the same setting: with FQGSMRIFTKKLPHPDLPQEEKEQ the figure was 2.31; with FQGSMRIFTKKLPHPDLPEEEKEQ, 2.37; with FQGSMRIFTKKLPHPDLPGEEKEQ, 1.63.
As for FQGSMRIFTKKLPHPDLPREEKEQ, the protein stability index worked out at 1.64.
On the same count and under the same terms, with FQGSMRIFTKKLPHPDLPSEEKEQ the figure was 2.08.
